Assay results as given in patent EP2500357A2 (Abbott Laboratories, dated 2012).
Where two headings read alike, the source gives them in different places.

Assays:
Test in all cases: cell-based or functional assay
[1] = target: T1, recombinant human IL-1α (human, UniProt P01583 113-271)
T1 sequence (looked up): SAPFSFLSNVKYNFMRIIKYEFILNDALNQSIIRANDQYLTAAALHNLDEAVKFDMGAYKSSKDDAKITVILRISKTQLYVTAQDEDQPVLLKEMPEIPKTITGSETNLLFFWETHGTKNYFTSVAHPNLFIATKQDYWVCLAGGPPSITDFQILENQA

[2] = target: T2, recombinant human IL-1β (human, UniProt P01584 117-269)
[3] = target: T1, recombinant human IL-1α; remark: listed apart in the source
[4] = target: T1, recombinant human IL-1α; remark: listed apart in the source
[5] = target: T2, recombinant human IL-1β; remark: listed apart in the source
[6] = target: T1, recombinant human IL-1α; remark: listed apart in the source
[7] = target: T2, recombinant human IL-1β; remark: listed apart in the source
[8] = target: T2, recombinant human IL-1β; remark: listed apart in the source

B1: hIL-1a/bDVD3b-Ig (bispecific antibody, human IgG1, kappa)
heavy: not shown
light: ETTVTQSPASLSMAIGEKVTIRCITSTDIDVDMNWYQQKPGEPPKLLISQGNTLRPGVPSRFSSSGSGTDFVFIIENMLSEDVADYYCLQSDNLPLTFGAGTKLELKRTVAAPDIVMTQSQRFMSTSVGDRVSVTCKASQNVGTNIAWYQQKPGQSPRALIYSASYRYSGVPDRFTGSGSGTDFTLTISNVQSVDLAEYFCQQYTRYPLTFGGGTKLEIKRTVAAPSVFIFPPSDEQLKSGTASVVCLLNNFYPREAKVQWKVDNALQSGNSQESVTEQDSKDSTYSLSSTLTLSKADYEKHKVYACEVTHQGLSSPVTKSFNRGEC
Potency (IC50), MRC-5 bioassay [1]: 0.7 nM

B2: hIL-1a/bDVD4b-Ig (bispecific antibody, human IgG1, kappa)
heavy: not shown
light: ETTVTQSPASLSMAIGEKVTIRCITSTDIDVDMNWYQQKPGEPPKLLISQGNTLRPGVPSRFSSSGSGTDFVFIIENMLSEDVADYYCLQSDNLPLTFGAGTKLELKRTVAAPSVFIFPPDIVMTQSQRFMSTSVGDRVSVTCKASQNVGTNIAWYQQKPGQSPRALIYSASYRYSGVPDRFTGSGSGTDFTLTISNVQSVDLAEYFCQQYTRYPLTFGGGTKLEIKRTVAAPSVFIFPPSDEQLKSGTASVVCLLNNFYPREAKVQWKVDNALQSGNSQESVTEQDSKDSTYSLSSTLTLSKADYEKHKVYACEVTHQGLSSPVTKSFNRGEC
Potency (IC50), MRC-5 bioassay [1]: 0.35 nM
Potency (IC50), MRC-5 bioassay [2]: 0.5 nM

B3: hIL-1a/bDVD6a-Ig (bispecific antibody, human IgG1, kappa)
heavy: not shown
light: QIVLTQSPALMSASPGEKVTMTCSASSSVNYMYWYQQKPRSSPKPWIYLTSNLASGVPARFSGSGSGTSYSLTISSMEAEDAATYYCQQWNSNPYTFGGGTKLEMKRTVAAPSVFIFPPQIVLTQSPAIMSASPGEKVTITCSASSSVSYMHWFQQKPGASPKLWIYSTSNLASGVPARFSGSGSGTSYSLTVSRMEAEDAATYYCQQRSTYPYTFGGGTKLEIKRTVAAPSVFIFPPSDEQLKSGTASVVCLLNNFYPREAKVQWKVDNALQSGNSQESVTEQDSKDSTYSLSSTLTLSKADYEKHKVYACEVTHQGLSSPVTKSFNRGEC
Potency (IC50), MRC-5 bioassay [1]: 2.3 nM
Potency (IC50), MRC-5 bioassay [2]: 70 nM

B4: hIL-1a/bDVD5b-Ig (bispecific antibody, human IgG1, kappa)
heavy: not shown
light: QIVLTQSPAIMSASPGEKVTITCSASSSVSYMHWFQQKPGASPKLWIYSTSNLASGVPARFSGSGSGTSYSLTVSRMEAEDAATYYCQQRSTYPYTFGGGTKLEIKRTVAAPQIVLTQSPALMSASPGEKVTMTCSASSSVNYMYWYQQKPRSSPKPWIYLTSNLASGVPARFSGSGSGTSYSLTISSMEAEDAATYYCQQWNSNPYTFGGGTKLEMKRTVAAPSVFIFPPSDEQLKSGTASVVCLLNNFYPREAKVQWKVDNALQSGNSQESVTEQDSKDSTYSLSSTLTLSKADYEKHKVYACEVTHQGLSSPVTKSFNRGEC
Potency (IC50), MRC-5 bioassay [1]: 3.3 nM
Potency (IC50), MRC-5 bioassay [2]: 0.25 nM

B5: hIL-1a/bDVD6b-Ig (bispecific antibody, human IgG1, kappa)
heavy: not shown
light: QIVLTQSPAIMSASPGEKVTITCSASSSVSYMHWFQQKPGASPKLWIYSTSNLASGVPARFSGSGSGTSYSLTVSRMEAEDAATYYCQQRSTYPYTFGGGTKLEIKRTVAAPSVFIFPPQIVLTQSPALMSASPGEKVTMTCSASSSVNYMYWYQQKPRSSPKPWIYLTSNLASGVPARFSGSGSGTSYSLTISSMEAEDAATYYCQQWNSNPYTFGGGTKLEMKRTVAAPSVFIFPPSDEQLKSGTASVVCLLNNFYPREAKVQWKVDNALQSGNSQESVTEQDSKDSTYSLSSTLTLSKADYEKHKVYACEVTHQGLSSPVTKSFNRGEC
Potency (IC50), MRC-5 bioassay [1]: 1 nM
Potency (IC50), MRC-5 bioassay [2]: 0.75 nM

B6: hIL-1a/bDVD4a-Ig (bispecific antibody, human IgG1, kappa)
heavy: not shown
light: DIVMTQSQRFMSTSVGDRVSVTCKASQNVGTNIAWYQQKPGQSPRALIYSASYRYSGVPDRFTGSGSGTDFTLTISNVQSVDLAEYFCQQYTRYPLTFGGGTKLEIKRTVAAPSVFIFPPETTVTQSPASLSMAIGEKVTIRCITSTDIDVDMNWYQQKPGEPPKLLISQGNTLRPGVPSRFSSSGSGTDFVFIIENMLSEDVADYYCLQSDNLPLTFGAGTKLELKRTVAAPSVFIFPPSDEQLKSGTASVVCLLNNFYPREAKVQWKVDNALQSGNSQESVTEQDSKDSTYSLSSTLTLSKADYEKHKVYACEVTHQGLSSPVTKSFNRGEC
Potency (IC50), MRC-5 bioassay [1]: 0.35 nM
Potency (IC50), MRC-5 bioassay [2]: 10 nM

B7: murine anti-hIL-1α mAb 18F4.2C8 (antibody, V domains shown)
VH: EVQLQQSGAELVKPGASVKLSCTASGLNIKDTYMHWLKQRPEQGLEWIGRIDPANGNAKYDPRFLGKATITADTSSNTAYLQLSSLTSEDTAVYYCARGDGNFHFDYWGQGTTLTVSS
VL: DIVMTQSQRFMSTSVGDRVSVTCKASQNVGTNIAWYQQKPGQSPRALIYSASYRYSGVPDRFTGSGSGTDFTLTISNVQSVDLAEYFCQQYTRYPLTFGGGTKLEIKR
IC50, MRC-5 bioassay [1]: 0.33 nM
IC50, inhibition of IL-8 production by MRC-5 cells [3]: 0.089 nM

B8: hIL-1a/bDVD3a-Ig (bispecific antibody, human IgG1, kappa)
heavy: not shown
light: DIVMTQSQRFMSTSVGDRVSVTCKASQNVGTNIAWYQQKPGQSPRALIYSASYRYSGVPDRFTGSGSGTDFTLTISNVQSVDLAEYFCQQYTRYPLTFGGGTKLEIKRTVAAPETTVTQSPASLSMAIGEKVTIRCITSTDIDVDMNWYQQKPGEPPKLLISQGNTLRPGVPSRFSSSGSGTDFVFIIENMLSEDVADYYCLQSDNLPLTFGAGTKLELKRTVAAPSVFIFPPSDEQLKSGTASVVCLLNNFYPREAKVQWKVDNALQSGNSQESVTEQDSKDSTYSLSSTLTLSKADYEKHKVYACEVTHQGLSSPVTKSFNRGEC
Potency (IC50), MRC-5 bioassay [1]: 0.75 nM

B9: hIL-1a/bDVD2-Ig (bispecific antibody, human IgG1, kappa)
heavy: not shown
light: NIVLTQSPASLAVSLGQRATISCRASESVDSYGNSYMHWYQQKPGQPPKLLIYLASNLESGVPARFSGSGSRTDFTLTIDPVEADDAATYYCQQNNEDPFTFGSGTKLEIKRADAAPNIQMTQTTSSLSASLGDRVTISCRASQDISNCLNWYQQKPDGTVKLLIYYTSRLHSGVPSRFSGSGSGTDYSLTISNLEQEDIATYFCQQGKTLPYAFGGGTKLEINRTVAAPSVFIFPPSDEQLKSGTASVVCLLNNFYPREAKVQWKVDNALQSGNSQESVTEQDSKDSTYSLSSTLTLSKADYEKHKVYACEVTHQGLSSPVTKSFNRGEC
dual-inhibition activity, IL-8 synthesis by MRC-5 cells with both IL-1α and IL-1β present [4]: 1.2 nM
neutralizing activity against hIL-1α relative to the chimeric Abs [4]: 3 fold
dual-inhibition activity, IL-8 synthesis by MRC-5 cells with both IL-1α and IL-1β present [5]: 1.2 nM
neutralizing activity to hIL-1β relative to DVD1-Ig [5]: 3 fold
Potency (IC50), MRC-5 bioassay [6]: 2.9 nM
Potency (IC50), MRC-5 bioassay [7]: 1.6 nM

B10: murine anti-hIL-1β mAb 1B12.4H4 (antibody, V domains shown)
VH: QVHLKESGPGLVAPSQSLSITCTVSGFSLTDYGVSWIRQPPGKGLEWLGLIWGGGDTYYNSPLKSRLSIRKDNSKSQVFLKMNSLQTDDTAVYYCAKQRTLWGYDLYGMDYWGQGTSVTVSS
VL: ETTVTQSPASLSMAIGEKVTIRCITSTDIDVDMNWYQQKPGEPPKLLISQGNTLRPGVPSRFSSSGSGTDFVFIIENMLSEDVADYYCLQSDNLPLTFGAGTKLELKR
IC50, MRC-5 bioassay [2]: 0.6 nM
IC50, inhibition of IL-8 production by MRC-5 cells [8]: 0.53 nM

B11: murine anti-hIL-1α mAb 6H3.1A4.3E11 (antibody, V domains shown)
VH: QVQLQQPGAELVRPGASVKLSCKASGYTFTTYWMNWVKQRPEQGLEWIGRIDPYDSETLYSQKFKDTAILTVDKSSSTAYMQLSSLTSEDSAVYYCARYGFDYWGQGTTLTVSS
VL: QIVLTQSPALMSASPGEKVTMTCSASSSVNYMYWYQQKPRSSPKPWIYLTSNLASGVPARFSGSGSGTSYSLTISSMEAEDAATYYCQQWNSNPYTFGGGTKLEMKR
IC50, MRC-5 bioassay [1]: 0.24 nM
IC50, inhibition of IL-8 production by MRC-5 cells [3]: 0.24 nM

B12: murine anti-hIL-1α mAb 3D12.E3 (antibody, V domains shown)
VH: QIQLVQSGPELKKPGETVKISCKASGYTFRNYGMNWVKQAPGKDLKRMAWINTYTGESTYADDFKGRFAFSLETSASTAYLQINNLKNEDTATYFCARGIYYYGSSYAMDYWGQGTSVTVSS
VL: NIQMTQTTSSLSASLGDRVTISCRASQDISNCLNWYQQKPDGTVKLLIYYTSRLHSGVPSRFSGSGSGTDYSLTISNLEQEDIATYFCQQGKTLPYAFGGGTKLEINR
IC50, inhibition of IL-8 production by MRC-5 cells [3]: 0.67 nM
Potency (IC50), MRC-5 bioassay [6]: 0.67 nM

B13: chimeric 3D12.E3 Ab (3D12.E3-VH-hCγ1 / 3D12.E3-VL-hCk) (antibody, V domains shown)
VH: QIQLVQSGPELKKPGETVKISCKASGYTFRNYGMNWVKQAPGKDLKRMAWINTYTGESTYADDFKGRFAFSLETSASTAYLQINNLKNEDTATYFCARGIYYYGSSYAMDYWGQGTSVTVSS
VL: NIQMTQTTSSLSASLGDRVTISCRASQDISNCLNWYQQKPDGTVKLLIYYTSRLHSGVPSRFSGSGSGTDYSLTISNLEQEDIATYFCQQGKTLPYAFGGGTKLEINR
Potency (IC50), MRC-5 bioassay [6]: 0.7 nM

B14: chimeric 13F5.G5 Ab (13F5.G5-VH-Cγ1 / 13F5.G5-VL-Cκ) (antibody, V domains shown)
VH: QVQLQQSGAELVRPGSSVKISCKASGYAFSSYWMNWVKQRPGQGLEWIGQIYPGDGDTNYNGKFKGKATLTADKSSSTSYMQLSGLTSEDSAMYFCVRFPTGNDYYAMDYWGQGTSVTVSS
VL: NIVLTQSPASLAVSLGQRATISCRASESVDSYGNSYMHWYQQKPGQPPKLLIYLASNLESGVPARFSGSGSRTDFTLTIDPVEADDAATYYCQQNNEDPFTFGSGTKLEIKR
Potency (IC50), MRC-5 bioassay [7]: 0.53 nM

B15: hIL-1a/bDVD5a-Ig (bispecific antibody, human IgG1, kappa)
heavy: not shown
light: QIVLTQSPALMSASPGEKVTMTCSASSSVNYMYWYQQKPRSSPKPWIYLTSNLASGVPARFSGSGSGTSYSLTISSMEAEDAATYYCQQWNSNPYTFGGGTKLEMKRTVAAPQIVLTQSPAIMSASPGEKVTITCSASSSVSYMHWFQQKPGASPKLWIYSTSNLASGVPARFSGSGSGTSYSLTVSRMEAEDAATYYCQQRSTYPYTFGGGTKLEIKRTVAAPSVFIFPPSDEQLKSGTASVVCLLNNFYPREAKVQWKVDNALQSGNSQESVTEQDSKDSTYSLSSTLTLSKADYEKHKVYACEVTHQGLSSPVTKSFNRGEC
Potency (IC50), MRC-5 bioassay [1]: 2.6 nM
Potency (IC50), MRC-5 bioassay [2]: 19 nM
